Assay results: patent US20050064420A1, “Methods for identifying, isolating, and controlling the growth of estrogen-responsive cells” (Dana-Farber Cancer Institute, Inc., priority 2001, published 2005)

Experiments:
[1] = system: estrogen receptor expressing human breast cancer cell lines; format: cell-based
Experimental: Profiles for untreated (filled) and estrogen treated cells (unfilled) infected with the Ad-25ERE-GFP adenovirus are shown.
To assay estrogen responsiveness, cells were cultured in estrogen-free medium (phenol red-free RPMI1640 or DMEM/F12 medium (Life Technologies, Rockville, Md.) supplemented with charcoal/dextran treated fetal bovine serum (cd FBS; 5%) (Hyclone, Logan, Utah)) for 7 days. The cells were tested in fresh estrogen-free medium or fresh estrogen-free medium supplemented with 10 nM estradiol or 10 μM 4-hydroxy-tamoxifen. Cells were collected after 16-24 hours of hormone treatment.
For fluorescence microscopy analysis breast cancer cell lines were infected with Ad-25ERE-GFP virus at a MOI (multiplicity of infection) of ˜100 and treated with hormones as described above.
By infecting mammary epithelial cells with the Ad-25ERE-GFP adenovirus, it was possible to isolate ER+ estrogen responsive cells based on GFP expression. […] Ad-25ERE-GFP was then used to infect various estrogen receptor expressing human breast cancer cell lines in the presence of estrogen or tamoxifen or in the absence of hormone (FIG. 1B).

[2] = system: ER+ breast cancer cell lines (MCF-7 and T47D); assay: Colony assay after transfection with lipocalin 2 expression vector (pCEP4-lipocalin-HA), hygromycin selection; format: cell-based, human; details: lipocalin 2 expression vs control vector pCEP4; 2 weeks hygromycin selection; crystal violet staining
From the text: (§1) FIG. 3D is a bar graph showing the numbers of colonies that were obtained after drug (hygromycin) selection (for 2 weeks) of estrogen receptor (“ER”) expressing (“Positive”) MCF-7 and T47D breast cancer cells, estrogen receptor non-expressing (“Negative”) BT549 and MTA-MB-435S breast cancer cells, and estrogen receptor non-expressing (“Negative”) MCF10A normal immortalized mammary epithelial cells that had all been transfected with either a control expression vector (“CEP”) or an expression vector containing cDNA encoding human lipocalin 2 fused at its C-terminus to a double hemagglutinin tag (“LIPO”). The experiments were carried out in T25 tissue culture flasks and the data are expressed as the number of “Colonies/T25 flask”.
(§2) cDNA encoding human lipocalin 2 was amplified by PCR and the isolated PCR product was cloned into the pCEP4 (Invitrogen, Carlsbad, Calif.). The resulting vector (pCEP4-lipocalin-HA) expresses lipocalin-2 with a double hemaglutinnin (HA) tag at its C-terminus. For colony assays, cells were transfected with pCEP4 (control) or pCEP4-lipocalin-HA using FuGene6 (Roche, Indianapolis, Ind.). Transfectants were selected in hygromycin-containing medium for 2 weeks after which colonies were visualized by crystal violet staining. Expression of the lipocalin 2-HA fusion protein was confirmed by western blot analysis (using an antibody specific for HA (Covance, Richmond, Calif.)) of cell lysate and medium from T47D cells transfected with pCEP4 or pCEP4-lipocalin-HA constructs.
(§3) Lipocalin 2 is a secreted protein and could thus be a paracrine factor expressed by NER+ cells that affects the surrounding mammary epithelial cells. In order to determine the effect of lipocalin 2 expression on mammary cell growth, colony growth assays were performed in various ER− and ER+ breast cancer cell lines and in MCF10A cells (FIG. 3D). […] In MCF10A immortalized ER− normal mammary epithelial cells a small increase in the number of colonies (18 vs. 7 colonies) was also observed following lipocalin 2 transfection (FIG. 3D). […]

[3] = system: ER- breast cancer cell line BT549; assay: as above; format: cell-based, human; details: lipocalin 2 expression vs control vector pCEP4, 2 weeks hygromycin selection
From the text: as §1, §2, §3

[4] = system: MCF10A immortalized ER- normal mammary epithelial cells; assay: as above; format: cell-based, human; details: following lipocalin 2 transfection (control vector: 7 colonies), T25 flask
From the text: as §1, §2, §3

MCF10A cells = assay: Colony assay with lipocalin 2 conditioned medium; format: cell-based, human; details: conditioned medium from cells expressing lipocalin 2 vs GFP, seven days of culture
Experimental: (§4) FIG. 4 is a bar graph showing the number of colonies that were obtained after culturing estrogen receptor expressing 747D breast cancer cells and estrogen receptor non-expressing MCF10A normal immortalized mammary epithelial cells with conditioned medium from […] cells recombinantly expressing either GFP (“GEP”) or lipocalin 2 (“LIPO”). The experiments were carried out in the wells of 6-well tissue culture plates. Data, which are expressed as “Colonies/well”, from experiments carried out in medium supplemented with 5% fetal bovine serum (“5% FBS”) or 0.2% fetal bovine serum (“0.2% FBS”) are shown.
(§5) For experiments to test for cell growth regulatory activity in secreted lipocalin 2, conditioned medium was generated by infecting COS7 cells with replication-defective adenoviruses expressing either GFP or lipocalin 2. Filtered medium collected 3-4 days after infection was applied to T47 or MCF10A cells. Colonies were visualized by crystal violet staining after seven days of culture.
(§6) Lipocalin 2 is a secreted protein and could thus be a paracrine factor expressed by NER+ cells that affects the surrounding mammary epithelial cells. In order to determine the effect of lipocalin 2 expression on mammary cell growth, colony growth assays were performed in various ER− and ER+ breast cancer cell lines and in MCF10A cells (FIG. 3D). […]

T47D cells = assay: Colony assay with lipocalin 2 conditioned medium; format: cell-based, human; details: conditioned medium from cells expressing lipocalin 2 vs GFP, seven days of culture
Experimental: as §4, §5, §6

Molecule: C[C@]12CC[C@@H]3c4ccc(O)cc4CC[C@H]3[C@@H]1CC[C@@H]2O [estrogen, estradiol]
- GFP expression [1]: high GFP expression

B1: lipocalin 2: Secreted human protein; expressed from pCEP4-lipocalin-HA with C-terminal double hemagglutinin tag, or supplied in conditioned medium (protein, UniProt P80188 21-198, looked up)
Neutrophil …: QDSTSDLIPAPPLSKVPLQQNFQDNQFQGKWYVVGLAGNAILREDKDPQKMYATIYELKEDKSYNVTSVLFRKKKCDYWIRTFVPGCQPGEFTLGNIKSYPGLTSYLVRVVSTNYNQHAMVFFKKVSQNREYFKITLYGRTKELTSELKENFIRFSKSLGLPENHIVFPVPIDQCIDG
modifications: C-terminal double HA tag
notes: Secreted human protein; expressed from pCEP4-lipocalin-HA with C-terminal double hemagglutinin tag, or supplied in conditioned medium
- colony numbers [2]: dramatically suppressed colony numbers
- colony numbers [3]: small but significant increase in colony numbers
- number of colonies [4]: 18 colonies
- growth (colonies) with exogenous lipocalin 2 (MCF10A cells): enhanced
- growth (colonies) with exogenous lipocalin 2 (T47D cells): inhibited
